Data: US6429014B1, “Monoterpene synthases from grand fir (Abies grandis)” (Washington State University Research Foundation, priority 1997, dated 2002)

Experiments:
[1] = Terpene synthase assay and GC-MS / chiral GC product identification of recombinant enzymes expressed from pSBET in E. coli BL21(DE3) (Example 11); format: biochemical; conditions: extracts of induced cells
Experimental: For functional expression, bacterial strains E. coli BL21(DE3)/pSAG2(M), E. coli BL21(DE3)/pSAG2(R), E. coli BL21(DE3)/pSAG3(R), E. coli BL21(DE3)/pSAG6(M), E. coli BL21(DE3/pSAG6(R), E. coli BL21(DE3)/pSAG8(M), E. coli BL21(DE3)/pSAG9(M), E. coli BL21(DE3)/pSAG11(M) and E. coli BL21(DE3)/SAG11(R) were grown to A600=0.5 at 37° C. in 5 ml of Luria-Bertani medium (Sambrook, J., Fritsch, E. F., and Maniatis, T. (1989) Molecular Cloning: A Laboratory Manual, 2nd Ed., pp. 7.20-7.43, Cold Spring Harbor, N.Y.) supplemented with 30 μg kanamycin/ml. Cultures were then induced by addition of 1 mM isopropyl-1-thio-β-D-galactopyranoside and grown for another 12 h at 20° C. Cells were harvested by centrifugation and disrupted by sonication followed by centrifugation, and the resulting soluble enzyme preparations were assayed for monoterpene, sesquiterpene and diterpene synthase activity using the appropriate radiolabeled substrate as described previously (Bohlmann, J., Steele, C. L., and Croteau, R. (1997) J. Biol. Chem. 272, 21784-21792). This assay involves the isolation and separation of terpene olefins and oxygenated terpenes by column chromatography on silica, followed by scintillation counting to determine conversion rate. GC-MS analysis is employed for product identification, by comparison of retention times and mass spectra to those of authentic standards (Bohlmann, J., Steele, C. L., and Croteau, R. (1997) J. Biol Chem. 272, 21784-21792); assignment of absolute configuration is based upon chiral column capillary GC and matching of retention time to that of the corresponding enantiomer (Lewinsohn, E., Savage, T. J., Gijzen, M., and Croteau, R. (1993) Phytochem. Anal. 4, 220-225). To insure production of sufficient material for identification, the standard assay (Bohlmann, J., Steele, C. L., and Croteau, R. (1997) J. Biol. Chem. 272, 21784-21792) was scaled up by a factor of 20.
Initially, the four pSBET plasmids pSAG6(M), pSAG8(M), pSAG9(M) and pSAG11(M), containing the full-length cDNA inserts of ag6 (SEQ ID NO:64), ag8 (SEQ ID NO:66), ag9 (SEQ ID NO:77) and ag11 (SEQ ID NO:68), respectively, were expressed in E. coli BL21(DE3). Extracts of the induced, transformed bacterial cells were assayed for monoterpene, sesquiterpene and diterpene synthase activity using the corresponding labeled C10, C15 and C20 prenyl diphosphate substrates (Bohlmann, J., Steele, C. L., and Croteau, R. (1997) J. Biol. Chem. 272, 21784-21792). […] Since it is known that the relatively large amino-terminal transit peptide of plant terpene synthases can impair expression of the functional preprotein in E. coli and promote the formation of intractable inclusion bodies (Williams, D. C., McGarvey, D. J., Katahira, E. J., and Croteau, R. (1998) Biochemisiry 37, 12213-12220), the“pseudomature” forms of ag6 (SEQ ID NO:64) and ag11 (SEQ ID NO:68) were prepared by truncation of the cDNAs to insert a starting methionine immediately upstream of their tandem arginine elements (R59R 60 for ag6 (SEQ ID NO:64), R^71R^72 for ag11 (SEQ ID NO:68)) for expression in E. coli BL21(DE3)/pSAG6(R) and E. coli BL21(DE3)/pSAG11(R). Similar truncations of previously characterized ag2.2 (SEQ ID NO:1) (myrcene synthase, R^64R^65) and ag3.18 (SEQ ID NO:3) ((−)-pinene synthase, (SEQ ID NO:5) R^64R^65) (Bohlmann, J., Steele, C. L., and Croteau, R. (1997) J. Biol. Chem. 272, 21784-21792) were prepared for expression from pSBET as controls for the possible alteration of product yield and distribution resulting from truncation.
Monoterpenes generated at preparative scale from geranyl diphosphate by the recombinant enzymes encoded by ag6 (SEQ ID NO:64), ag8 (SEQ ID NO:66), ag9 (SEQ ID NO:77) and ag11 (SEQ ID NO:68) were analyzed by GC-MS and chiral phase (β-cyclodextrin) capillary GC, and identified by comparison of retention times and mass spectra to authentic standards (FIGS. 6-9). […] The enzyme encoded by ag6 (SEQ ID NO:65) is therefore designated as (−)-1S,4R-camphene synthase. […]

[2] = Monoterpene synthase assay and product identification with extracts of E. coli expressing Grand fir cDNA clones (Example 3); format: biochemical
Experimental: For expression, bacterial strains E. coil XLOLR/pAG3.18, E. coil XLOLR/pAG3.48, E. coli XL1-Blue/pGAG2.2, E. coli XL1-Blue/pGAG3.18, and E. coil BL21(DE3)/pSBAG10were grown to A600=0.5 at 37° C. in 5 ml of LB medium (Sambrock, J., Fritsch, E. F., and Maniatis, T. (1989) Molecular Cloning: A Laboratory Manual, 2d Ed., Cold Spring Harbor Laboratory, Cold Spring Harbor, N.Y.) supplemented with 100 μg ampicillin/ml or 30 μg kanamycin/ml as determined by the vector. Cultures were then induced by addition of 1 mM isopropyl-1-thio-β-D-galactopyranoside and grown for another 12 h at 20° C. Cells were harvested by centrifugation (2000×g, 10 min) and resuspended in either 1 ml monoterpene synthase assay buffer [50 mM Tris/HCl (pH 7.5), 500 mM KCl, 1 mM MnCl2, 5 mM dithiothreitol, 0.05% (w/v) NaHSO3 and 10% (v/v) glycerol], 1 ml sesquiterpene synthase assay buffer [10 mM dibasic potassium phosphate, 1.8 mM monobasic potassium phosphate (pH 7.3), 140 mM NaCl, 10 mM MgCl2, 5 mM dithiothreitol, 0.05% (w/v) NaHSO3 and 10% (v/v) glycerol], or 1 ml diterpene synthase assay buffer [30 mM Hepes (N-2-hydroxyethylpiperazine-N-′2-ethanesulfonic acid, pH 7.2), 7.5 mM MgCl2, 5 mM dithiothreitol, 10 µM MnCl2, 0.05% (w/v) NaHSO3 and 10% (v/v) glycerol].
Cells were disrupted by sonication (Braun-Sonic 2000 with microprobe at maximum power for 15 seconds at 0-4° C.), the homogenates were cleared by centrifugation (18,000×g, 10 min), and 1 ml of the resulting supernatant was assayed for monoterpene synthase activity with 2.5 μM of [1-^3H]geranyl diphosphate, for sesquiterpene synthase activity with 3.5 μM [1-^3H]farnesyl diphosphate, or for diterpene synthase activity with 5 μM [1- ^3H]geranylgeranyl diphosphate following standard protocols (Croteau, R., and Cane, D. E. (1985) Methods Enzymol. 110:383-405; LaFever, R. E., Stofer Vogel, B., and Croteau, R. (1994) Arch. Biochem. Biophys. 313:139-149; Dehal, S. S., and Croteau, R. (1988) Arch. Biochem. Biophys. 261:346-356). In the case of the monoterpene synthase and sesquiterpene synthase assays, the incubation mixture was overlaid with 1 ml pentane to trap volatile products. In all cases, after incubation at 31° C. for 2 h, the reaction mixture was extracted with pentane (3×1 ml) and the combined extract was passed through a 1.5 ml column of anhydrous MgSO4 and silica gel (Mallinckrodt 60 Å) to provide the terpene hydrocarbon fraction free of oxygenated metabolites. The columns were subsequently eluted with 3×1 ml of ether to collect any oxygenated products, and an aliquot of each fraction was taken for liquid scintillation counting to determine conversion rate.
Product Identification—To obtain sufficient product for analysis by radio-GLC (gas liquid chromatography), chiral capillary GLC and GLC-MS (mass spectrum/spectrometry), preparative-scale enzyme incubations were carried out. Thus, the enzyme was prepared from 50 ml of cultured bacterial cells by extraction with 3 ml of assay buffer as above, and the extracts were incubated with excess substrate overnight at 31° C. The hydrocarbon fraction was isolated by elution through MgSO4-silica gel as before, and the pentane eluate was concentrated for evaluation by capillary radio-GLC as described (Croteau, R., and Satterwhite, D. M. (1990) J. Chromatogr. 500:349-354), by chiral column capillary GLC (Lewinsohn, E., Savage, T. J., Gijzen, M., and Croteau, R. (1993) Phytochem. Anal. 4:220-225), and by combined GLC-MS [Hewlett-Packard 6890 GC-MSD with cool (40° C.) on-column injection, detection via electron impact ionization (70 eV), He carrier at 0.7 psi., column:0.25 mm i.d.×30 m fused silica with 0.25 μm film of 5MS (Hewlett-Packard) programmed from 35° C. (5 min hold) to 230° C. at 5° C./min].

B1: AG2.2: recombinant myrcene synthase from Grand fir encoded by cDNA clone AG2.2 (SEQ ID NO:1; protein SEQ ID NO:2) (protein, listed as Abies grandis)
chain: MALVSISPLASKSCLRKSLISSIHEHKPPYRTIPNLGMRRRGKSVTPSMSISLATAAPDDGVQRRIGDYHSNIWDDDFIQSLSTPYGEPSYQERAERLIVEVKKIFNSMYLDDGRLMSSFNDLMQRLWIVDSVERLGIARHFKNEITSALDYVFRYWEENGIGCGRDSIVTDLNSTALGFRTLRLHGYTVSPEVLKAFQDQNGQFVCSPGQTEGEIRSVLNLYRASLIAFPGEKVMEEAEIFSTRYLKEALQKIPVSALSQEIKFVMEYGWHTNLPRLEARNYIDTLEKDTSAWLNKNAGKKLLELAKLEFNIFNSLQQKELQYLLRWWKESDLPKLTFARHRHVEFYTLASCIAIDPKHSAFRLGFAKMCHLVTVLDDIYDTFGTIDELELFTSAIKRWNSSEIEHLPEYMKCVYMVVFETVNELTREAEKTQGRNTLNYVRKAWEAYFDSYMEEAKWISNGYLPMFEEYHENGKVSSAYRVATLQPILTLNAWLPDYILKGIDFPSRFNDLASSFLRLRGDTRCYKADRDRGEEASCISCYMKDNPGSTEEDALNHINAMVNDIIKELNWELLRSNDNIPMLAKKHAFDITRALHHLYIYRDGFSVANKETKKLVMETLLESMLF
terpene synthase activity on expression from pSBET in E. coli BL21(DE3) [1]: high level expression of activity
prenyl diphosphate substrate utilized (geranyl, farnesyl, geranylgeranyl diphosphate tested) ([2]; cell-free extract of induced E. coli, tritium labeled substrates): only with geranyl diphosphate as substrate
monoterpene products formed from geranyl diphosphate ([2]; radio-GLC, GLC-MS, chiral GLC): the only product was shown to be myrcene
